Measured values: patent US7960140B2, “Avidin mutants” (Orion Diagnostica Oy, priority 2003, dated 2011)
Where two headings read alike, the source gives them in different places.

Legend:
[1] = Heat-induced unfolding by DSC; type: physicochemical; details: for ΔTm: change in Tm upon addition of a three-fold molar excess of biotin; for DSC Tm (+)biotin: three-fold molar excess of biotin; for DSC Tm (−)biotin: without biotin
[2] = SDS-PAGE-based thermal stability assay; type: physicochemical; details: for SDS-PAGE stability assay Tr (−)biotin / SDS-PAGE stability assay Tr (+)biotin: Table 5; for SDS-PAGE stability assay Tr (−)biotin: transition midpoint of oligomeric disassembly, without biotin; for SDS-PAGE stability assay Tr (+)biotin: with biotin; for Tr / Tr + btn: Table 2; for Tr: absence of biotin, half of tetramer/pseudo-tetramer broken into monomers; for Tr + btn: presence of biotin
Method: Thermal stability of the mutants was studied by using a SDS-PAGE-based method essentially as described in detail by Bayer et al. (Bayer, E. A. et al. Electrophoresis 17, 1319-1324 (1996)). Briefly, the protein sample in the absence or presence of biotin was diluted to a final concentration of 0.2 mg/mil in 50 mM Na-carbonate buffer, and the proteins were acetylated by adding acetyl NHS ester. Equal amount of SDS-PAGE sample buffer was added to each sample and the protein was incubated at different temperatures (between 25-100° C.) for 20 minutes. After that the samples were subjected to SDS-PAGE analysis and the gel was finally stained with Coomassie brilliant blue. Dissociation of the proteins into their subunits was observed from the gels and the transition temperatures, wherein half of the protein was (pseudo-)tetrameric and half monomeric were determined.

[3] = Dissociation assay with fluorescent biotin conjugate (ArcDia BF560); type: binding; details: for Release 1 h / t1/4 (time point of 25% release) / kdiss: 23 ± 1° C.; for Release 1 h: 100-fold molar excess of free biotin; for t1/4 (time point of 25% release): determined directly from the measured data; for kdiss: one-phase dissociation model
Method: The biotin-binding properties of produced mutagenised dcAvds were analysed by method based on the quenching of biotin-coupled fluorescent probe ArcDia BF560 (ArcDia Ltd., Turku, Finland) due to binding to avidin (FIG. 4). PerkinElmer LS55 luminometer was used for measurements. […] The spectra of 50 nM biotin-Bf560 solution in 50 mM Na-phosphate containing 650 mM NaCl was measured (red). Chicken avidin (Belovo S. A., Bastogne, Belgium) was added to final subunit concentration of 83 nM and green spectra was obtained.
Briefly, 50 nM free biotin-Bf560 solution in 50 mM Na-phosphate containing 650 mM NaCl was measured using excitation at 560 nm (2.5 nm slit) and emission was collected at 578 nm (5 nm slit). Continuous stirring (setting low) was used throughout the analysis. After 100 sec measurement, the protein under study was added to final biotin-binding subunit concentration 50 nM and the measurement was continued for 500 sec. […]
A one-phase dissociation model was used to analyse the data, as described elsewhere (Hytönen et al., (2004) Biochem J, in press). The dissociation rate constant (kdiss) was determined by fitting the equation −kdisst=ln(B/Bo) to the data. Bo is the measured maximum binding (100%) determined as the difference between the fluorescence of the free dye and the fluorescence of the protein-dye complex, and B is the amount of complex measured as a function of time. The first 500 seconds were omitted from the data to abolish the effect of the fast initial phase characteristic of avidin-BF560-biotin interaction (FIG. 9). The fraction of fluorescent biotin released after one-hour was determined, as well as the times of half-maximal (t½) and quarter-maximal (t¼) release. For dual chain avidins with modified binding sites, it was hypothesized that 50% of the binding sites would behave like those of wt avidin (cpAvd5S4 binding site of dcAvd was not modified). The dissociation data measured for wt avidin divided by two was subtracted from the data measured for the modified dual chain avidins and the dissociation curve was fitted to the difference as above.

[4] = Reversibility of biotin binding on biotinylated IAsys cuvette surface; details: reversibility from biotin surface; biotin 423 μg/ml, one hour
Method: The reversibility of biotin binding was also measured using IAsys apparatus. In the reversibility assay, the sample proteins were allowed to bind to the biotinylated cuvette surface in PBS containing 1 M NaCl. After the equilibrium was reached, the cuvette was filled with PBS, 1 M NaCl containing biotin (423 μg/ml) and the dissociation of the proteins was monitored for one hour.

[5] = IAsys optical biosensor binding to immobilised 2-iminobiotin; details: for kass / kdiss: 2-iminobiotin surface, 50 mM borate pH 9.5, 1 M NaCl, 20° C.; for Kd: 2-iminobiotin
Method: Reversibility of biotin binding and affinity towards 2-iminobiotin were determined with an IAsys optical biosensor (Affinity Sensors, Cambridge, UK) (Table 1.) as described in detail by Marttila et. al. (Marttila, A. T. et al. FEBS Lett 441, 313-7 (1998)). Briefly, The 2-iminobiotin ligand was immobilized onto the carboxymethyldextran surface of a cuvette using N-hydroxysuccinimide activation. Binding of various concentrations of avidin or avidin mutants onto 2-iminobiotinylated surface was measured in a 50 mM borate buffer (pH 9.5) containing 1 M NaCl at 20° C. The 2-iminobiotin cuvettes were regenerated with 20 mM HCl. The kinetic rate constants for association (kass) and dissociation (kdiss) were calculated using the Fast Fit program package (Affinity Sensors). The obtained rate constants were used to calculate Kd(rel) according to Kd=kdiss/kass. Equilibrium data obtained from measurements with different protein concentrations were used to calculate the dissociation constant Kd(eq).

[6] = Free biotin-binding sites by quenching of intrinsic fluorescence on biotin titration; details: for Fluorescence quenching (350 nm): intrinsic fluorescence, emission 350 nm, due to binding of biotin; for Number of free biotin-binding sites per quaternary unit: protein 500±15 nM, titrated with biotin
Method: The number of free binding sites was determined based on the quenching of the intrinsic fluorescence of avidin due to binding of biotin (Laitinen et al., (2003) J. Biol. Chem. 278, 4010-4014). The protein sample under study diluted to 2 ml volume in 50 mM NaPO4 pH 7.0+650 mM NaCl was titrated with 1 μl additions of 70 μM biotin solution in the same buffer. The protein concentration in this assay was 500±15 nM, and the concentration was determined by comparing the emission intensity averaged over 340-350 nm (excitation at 280 nm) to avidin standard sample. The protein sample was continuously mixed by magnetic stirrer.
Intensity from each biotin concentration was averaged over eight second measurement. The end-point of the quenching was determined by fitting a line to obtained data and determining the total quenching by averaging the last three measured intensities (FIG. 12, Table 6).

[7] = Microplate temperature stability assay; type: physicochemical; details: for activity after 32 min treatment: 80° C.
Method: FIG. 13. Temperature sensitivity determined by microplate assay. The avidin, dcAvd and scAvd sample is treated with the indicated temperature for certain time and the ability to bind biotinylated alkaline phosphatase was determined by coating the microplate with the sample.
The stability of the protein was studied by microplate assay as described in the article by Nordlund et al., (2003) J Biol Chem 278, 2479-83. In this assay, 50 mM Na—PO4 buffer containing 100 mM NaCl was used and the protein was heated to 80° C. or 90° C. for certain time. After that, the capacity to bind fluorescent biotin was measured as described in the article by Nordlund et al., (2003) J Biol Chem 278, 2479-83.

[8] = Colorimetric HABA-assay for number of free biotin-binding sites; details: average from two independent experiments
Method: The colorimetric HABA-assay was performed essentially as described by Green (Green, N. Methods in Enzymology 18, 418-424 (1970)). Dual-chain avidin (dcAvd) in 100 mM phosphate buffer (pH 7) was saturated with excess HABA and the absorbance was measured at 500 nm with a Beckman DU640 spectrophotometer. After that, excess biotin, which replaces HABA from the binding site, was added to the sample and the absorbance at 500 nm was measured again. The observed change in the absorbance was used to calculate the number of free binding sites in dcAvd.
The number of biotin-binding sites per dual-chain avidin pseudo-tetramer (is actually a dimer with four binding sites) was determined in a colorimetric HABA-assay according to Green (Green, N. Methods in Enzymology 18, 418-424 (1970)). The average from two independent experiments gave an approximation of 3.3 free biotin-binding sites per dimeric molecule (pseudo-tetramer).

[9] = calculated from the rate constants (kdiss/kass), read-out: Kd(rel)
[10] = determined experimentally from the binding curves, read-out: Kd(eq)

Molecule	ΔTm [1]	DSC Tm (+)biotin [1]	DSC Tm (−)biotin [1]	SDS-PAGE stability assay Tr (−)biotin [2]	SDS-PAGE stability assay Tr (+)biotin [2]	Release 1 h [3]	t1/4 (time point of 25% release) [3]	kdiss [3]	reversibility [4]	kass [5]	kdiss [5]	Kd [5, 9]	Kd [5, 10]	quenching measured for whole emission spectrum (290-500 nm) due to biotin binding [6]	Fluorescence quenching (350 nm) [6]	Number of free biotin-binding sites per quaternary unit [6]	activity after 32 min treatment ([7]; 32 min)	heat inactivation ([7]; 100° C.)	Tr [2]	Tr + btn [2]	also measured
Avd(S16A): avidin mutant S16A in all four subunits	30.3 °C	114.6 ± 0.2 °C	84.3 ± 0.3 °C	55 °C	80 °C	74.5%	621 s	0.00036 s⁻¹	–	–	–	–	–	–	–	–	–	–	–	–	–
Avd(Y33H): avidin with four identically mutagenised (Y33H) subunits (Marttila et al. 2003) [reference compound]	33.3 °C	106.3 °C	73.0 °C	–	75 °C	99.2%	149 s	0.0011 s⁻¹	–	–	–	–	–	–	–	–	–	–	–	–	dissociation of biotin-coupled fluorescent probe with excess unlabeled biotin ([3]; 5 μM free biotin, 3600 sec, 23±0.5° C.): rapid and complete dissociation
Avidin: wild-type chicken avidin, homotetramer (SEQ ID NO:1) [reference compound]	33.5 °C	117.0 ± 0.7 °C	83.5 ± 0.1 °C	60 °C	95 °C	14.1%	–	2.3e-05 s⁻¹	9%	(5.5 ± 0.5) × 10^5 M^−1s^−1	(1.9 ± 1.4) × 10^−3 s^−1	34 nM	22 nM	44.9%	47.7%	3.34	82%	significantly slower response to the heat treatment	60 °C	95 °C	Number of free biotin-binding sites per quaternary unit ([6]; listed as avidin): 3.3; activity present after 32 min treatment ([7]; 90° C., 32 min): over 50%; Dissociation of fluorescent biotin Release 1 h ([3]; 25° C.): 14.1%; Dissociation of fluorescent biotin kdiss ([3]; 25° C.): 2.3e-05 s⁻¹; Dissociation of fluorescent biotin Release 1 h ([3]; 50° C.): 71.5%; Dissociation of fluorescent biotin kdiss ([3]; 50° C.): 0.00024 s⁻¹
dcAvd: dual-chain avidin, fusion of cpAvd5→4 and cpAvd6→5 via SGG spacer (SEQ ID NO:2) (protein, listed as Gallus gallus) MVHATSPLLLLLLLSLALVAPGLSARKRTQPTFGFTVNWKFSESTTVFTGQCFIDRNGKEVLKTMWLLRSSVNDIGDDWKATRVGINIFTRLRTQKEGGSGGSARKCSLTGKWTNDLGSNMTIGAVNSRGEFTGTYITAVTATSNEIKESPLHGTQNTINKSGGSTTVFTGQCFIDRNGKEVLKTMWLLRSSVNDIGDDWKATRVGINIFTRLRTQKEGGSGGSARKCSLTGKWTNDLGSNMTIGAVNSRGEFTGTYITAVTATSNEIKESPLHGTQNTINKRTQPTFGFTVNWKFSE	35.7 °C	115.9 °C	80.2 ± 0.0 °C	40 °C	75 °C	10.1%	–	1.4e-05 s⁻¹	8%	(9.8 ± 1.3) × 10^4 M^−1s^−1	(1.1 ± 0.5) × 10^−3 s^−1	110 nM	41 nM	45.1%	51.4%	3.86	59%	fast inactivation	40 °C	75 °C	free biotin-binding sites per dimeric molecule (pseudo-tetramer) [8]: ~3.3; heat inactivation ([7]; 90° C.): fast denaturation; Dissociation of fluorescent biotin Release 1 h ([3]; 25° C.): 10.1%; Dissociation of fluorescent biotin kdiss ([3]; 25° C.): 1.5e-05 s⁻¹; Dissociation of fluorescent biotin Release 1 h ([3]; 50° C.): 67.4%; Dissociation of fluorescent biotin kdiss ([3]; 50° C.): 0.00027 s⁻¹
